For one assay, the target named is T1, HLA-A*0201 (Homo sapiens, UniProt P04439, D140Y/D185E/D98H/E176V/E277Q/G131W/G231S/I119V/I121R/I166T/I218V/L300P/L318F/N151K/N90K/P208A/P217A/Q86G/Q94H/R138H/R169H/T345S).
T1 construct: the human tumoral cell T2 which expresses the HLA-A*0201 molecule; endogenous in cells; host or cells: T2 cells (human, TAP1/2 negative; 'T2 ATCC Cells')
In words: Affinity of the peptide to T2 cell line (HLA-A*0201 expression, FACS). The format is cell-based. The following applies: for Concentration that induces 20% of expression of the HLA-A*0201 / Mean fluorescence intensity: T2 ATCC cells; for Concentration that induces 20% of expression of the HLA-A*0201: Example 1; for Binding to HLA-A*0201 (in words) / Affinity to HLA-A*0201 compared with the corresponding human peptide (in words): T2 cells; for Affinity to HLA-A*0201 compared with the corresponding human peptide (in words): relative affinity, lower value = higher affinity; for Relative affinity: conc. inducing 20% expression / same of reference peptide HIV pol 589-597; for HLA-A2 labelling at 0.1 μM / HLA-A2 labelling at 1 μM / HLA-A2 labelling at 10 μM / HLA-A2 labelling at 100 μM: percentage of labelling of HIV pol 589-597 at 100 μM; for HLA-A2 labelling at 0.1 μM: peptide 0.1 μM; for HLA-A2 labelling at 1 μM: peptide 1 μM; for HLA-A2 labelling at 10 μM: peptide 10 μM; for HLA-A2 labelling at 100 μM: peptide 100 μM. The method, then: Affinity measurement of the peptides is achieved with the human tumoral cell T2 which expresses the HLA-A*0201 molecule, but which is TAP1/2 negative and incapable of presenting endogenous peptides.
T2 cells (2.10^5 cells per well) are incubated with decreasing concentrations of peptides from 100 μM to 0.1 μM in a AIMV medium supplemented with 100 ng/μl of human β2m at 37° C. for 16 hours. Cells are then washed two times and marked with the anti-HLA-A2 antibody coupled to PE (clone BB7.2, BD Pharmagen).
The analysis is achieved by FACS (Guava Easy Cyte). […]

For assay [1], the system named is IFNγ-producing cells (splenocytes). In words: ELISPOT-IFNγ assay on splenocytes of vaccinated β/A2/DR3 mice. The note with it: for Percentage of ConA-induced response (ELISPOT-IFNγ): mice vaccinated with the labelled peptide (100 μg s.c. + HHD-DR3, IFA, d0/d14), mean, SEM. Format: in vivo, mouse.
[2] abbreviates: ex vivo re-stimulation with IL13RA2-B pAg 10 μM.
[3] abbreviates: ex vivo re-stimulation with IL13RA2-H pAg 10 μM.

With FLPFGFILV [IL13RA2-B], in the assay with HLA-A*0201, the “Concentration that induces 20% of expression of the HLA-A*0201” value came to 4.4 µM. Also, the Mean fluorescence intensity was determined as 9.9 in the assay with HLA-A*0201 (peptide at 0.1 μM) and 112.03 with HLA-A*0201 (peptide at 100 µM). The “Binding to HLA-A*0201 (in words)” value in the assay with HLA-A*0201 is recorded as “binds strongly”. Moreover, in assay [1] (compared to IL13RA2-H-vaccinated animals (group 2)), the “T cell responses in the ELISPOT-IFNγ assay after vaccination (in words)” value was “improved T cell responses”. Moreover, the figures for the “Percentage of ConA-induced response (ELISPOT-IFNγ)” value (from here on “Percentage of ConA-induced response”) in assay [1] (setting [2]) and in assay [1] (setting [3]) were 56.3% and 32.3%, respectively.

For the sequence ITSDVPFSV [PMEL-B], in the assay with HLA-A*0201, the “Affinity to HLA-A*0201 compared with the corresponding human peptide (in words)” value was “higher affinity”. Moreover, the “Conc. inducing 20% of HLA-A2 expression” value with HLA-A*0201 (Table 8) turned out to be 18.24 µM.

Take YLAVFLPIV [STEAP-B2]: the “Affinity to HLA-A*0201 compared with the corresponding human peptide (in words)” value in the assay with HLA-A*0201 was “higher affinity”. Besides, the “Conc. inducing 20% of HLA-A2 expression” value with HLA-A*0201 (Table 8) is 8.22 µM.

Turning to TMNGKSSPV [ENAH-1B], in the assay with HLA-A*0201, the “Affinity to HLA-A*0201 compared with the corresponding human peptide (in words)” value is reported as “higher affinity”. Also, in the assay with HLA-A*0201 (Table 9), the “Conc. inducing 20% of HLA-A2 expression” value was found to be 33.45 µM, the Relative affinity is given as 1.26, the “HLA-A2 labelling at 0.1 μM” value is 12.71 and the “HLA-A2 labelling at 1 μM” value is recorded as 14.18. Besides, in the assay with HLA-A*0201 (Table 9), the “HLA-A2 labelling at 10 μM” value stood at 2.93 and the “HLA-A2 labelling at 100 μM” value is 100.24.

RLLEETDLV [ERBB2-1B]: in the assay with HLA-A*0201, the “Affinity to HLA-A*0201 compared with the corresponding human peptide (in words)” value is listed as “higher affinity”. Besides, in the assay with HLA-A*0201 (Table 7), the “Conc. inducing 20% of HLA-A2 expression” value worked out at 9.5 µM.

In the case of VLLGVVFGV [ERBB2-3B2], the “Affinity to HLA-A*0201 compared with the corresponding human peptide (in words)” value with HLA-A*0201 is “higher affinity”. In the assay with HLA-A*0201 (Table 7), the “Conc. inducing 20% of HLA-A2 expression” value is 6.9 µM, the Relative affinity came to 0.19, the “HLA-A2 labelling at 0.1 μM” value is on record as −14.62 and the “HLA-A2 labelling at 1 μM” value stood at 1.51. In the assay with HLA-A*0201 (Table 7), the “HLA-A2 labelling at 10 μM” value is reported as 56.97 and the “HLA-A2 labelling at 100 μM” value stood at 335.97.

With ILLGVVFGI [ERBB2-3B4], in the assay with HLA-A*0201, the “Affinity to HLA-A*0201 compared with the corresponding human peptide (in words)” value is “higher affinity”. In the assay with HLA-A*0201 (Table 7), the “Conc. inducing 20% of HLA-A2 expression” value was 0.9 µM.

On to VMLGVVFGI [ERBB2-3B3], for which, in the assay with HLA-A*0201, the “Affinity to HLA-A*0201 compared with the corresponding human peptide (in words)” value was “higher affinity”. Besides, in the assay with HLA-A*0201 (Table 7), the “Conc. inducing 20% of HLA-A2 expression” value was 12.5 µM.

Turning to “WLPFGFILI [IL13RA2-H, reference compound]”, in the assay with HLA-A*0201, the “Concentration that induces 20% of expression of the HLA-A*0201” value was determined as 100 µM and the “Binding to HLA-A*0201 (in words)” value is “does not bind”. Also, the “Percentage of ConA-induced response” value in assay [1] (setting [2]) came out at 2.0%. The “Percentage of ConA-induced response” value in assay [1] (setting [3]) worked out at 1.1%.

Consider MIAVFLPIV [STEAP-H, reference compound], for which the “Conc. inducing 20% of HLA-A2 expression” value with HLA-A*0201 (Table 8) is 33.45 µM.

Consider “VVLGVVFGI [ERBB2-3H, reference compound]”, for which, in the assay with HLA-A*0201 (Table 7), the “Conc. inducing 20% of HLA-A2 expression” value came out at 16.3 µM, the Relative affinity came out at 0.45, the “HLA-A2 labelling at 0.1 μM” value is given as −12.61 and the “HLA-A2 labelling at 1 μM” value is recorded as −24.03. Moreover, in the assay with HLA-A*0201 (Table 7), the “HLA-A2 labelling at 10 μM” value is 11.93 and the “HLA-A2 labelling at 100 μM” value is 196.47.

Regarding MLAVFLPLV [STEAP-B1], the “Affinity to HLA-A*0201 compared with the corresponding human peptide (in words)” value with HLA-A*0201 is listed as “higher affinity”. Besides, in the assay with HLA-A*0201 (Table 8), the “Conc. inducing 20% of HLA-A2 expression” value turned out to be 5 µM.

Consider “KVVEFLAML [MAGE C1H, reference compound]”, for which, in the assay with HLA-A*0201 (Table 8), the “Conc. inducing 20% of HLA-A2 expression” value was found to be 60.07 µM.

With KLVEWLAML [MAGE C1B], in the assay with HLA-A*0201, the “Affinity to HLA-A*0201 compared with the corresponding human peptide (in words)” value is “higher affinity”. Further, in the assay with HLA-A*0201 (Table 8), the “Conc. inducing 20% of HLA-A2 expression” value was determined as 30.91 µM.

Regarding SLPPDVQQV [MMP2-B], the “Affinity to HLA-A*0201 compared with the corresponding human peptide (in words)” value with HLA-A*0201 is listed as “higher affinity”. For the same sequence, in the assay with HLA-A*0201 (Table 8), the “Conc. inducing 20% of HLA-A2 expression” value turned out to be 0.88 µM.

Take VMLGVVFGV [ERBB2-3B1]: the “Affinity to HLA-A*0201 compared with the corresponding human peptide (in words)” value in the assay with HLA-A*0201 was “higher affinity”. Besides, the “Conc. inducing 20% of HLA-A2 expression” value in the assay with HLA-A*0201 (Table 7) is 9 µM.

Regarding TMNGSKSPV [ENAH-1H, reference compound], the “Binding to HLA-A*0201 (in words)” value with HLA-A*0201 is on record as “does not bind”. Moreover, in the assay with HLA-A*0201 (Table 9), the “HLA-A2 labelling at 0.1 μM” value is 8.31, the “HLA-A2 labelling at 1 μM” value is reported as −2.93, the “HLA-A2 labelling at 10 μM” value was determined as 19.07 and the “HLA-A2 labelling at 100 μM” value amounted to 18.58.

Turning to GLPPDVQRV [MMP2-H, reference compound], the “Conc. inducing 20% of HLA-A2 expression” value in the assay with HLA-A*0201 (Table 8) came to 1.76 µM.

(Values after patent US12263210B2, “Immunogenic compounds for cancer therapy” (priority 2016, dated 2025).)
